Data: patent US20230054718A1 (HIFIBIO HK, published 2023)
Where “and” joins values, the source holds several entries; their conditions need not be identical. Equal values may be shown once.

Experiments:
[1] = target: T1, recombinant mouse Galectin-9 (mouse, UniProt O08573-2 1-322, limits assumed); test: binding to recombinant mouse Gal-9, OD read-out over antibody concentration (nM); table under the curves
T1 construct: also called mGal9M; mouse Gal9

[2] = target: T2, recombinant human Galectin-9 (human, UniProt O00182-2 1-323, limits assumed); test: binding to recombinant human Gal-9, OD read-out over antibody concentration (nM); table under the curves
T2 construct: also called hGal9M; human Gal9

[3] = target: T3, Gal9 (Galectin-9) as used in Examples 3 to 5 (Homo sapiens (Human), UniProt O00182 1-323); test: Tim3 blocking Assay: binding (%) of Gal9 to TIM3 over antibody concentration; ambiguous fit marked '~', R2 printed 0,9819; no unit in the table, nM from the axis 'Antibody [nM]'
[4] = target: T3, Gal9 (Galectin-9) as used in Examples 3 …; test: CD44 blocking Assay: binding (%) of Gal9 to CD44 over antibody concentration; ambiguous fit marked '~', R2 printed 0,9183; no unit in the table, nM from the axis 'Antibody [nM]'
[5] = target: T3, Gal9 (Galectin-9) as used in Examples 3 …; test: CD44 blocking Assay: binding (%) of Gal9 to CD44 over antibody concentration; very poor fit, R2 printed 0,07344; no unit in the table, nM from the axis 'Antibody [nM]'
[6] = target: T3, Gal9 (Galectin-9) as used in Examples 3 …; test: Tim3 blocking Assay: binding (%) of Gal9 to TIM3 over antibody concentration; ambiguous fit marked '~', R2 printed 0,8826; no unit in the table, nM from the axis 'Antibody [nM]'
[7] = target: T3, Gal9 (Galectin-9) as used in Examples 3 …; test: Tim3 blocking Assay: binding (%) of Gal9 to TIM3 over antibody concentration; ambiguous fit marked '~', R2 printed 0,8078; no unit in the table, nM from the axis 'Antibody [nM]'
[8] = target: T3, Gal9 (Galectin-9) as used in Examples 3 …; test: CD44 blocking Assay: binding (%) of Gal9 to CD44 over antibody concentration; ambiguous fit marked '~', R2 printed 0,7386; no unit in the table, nM from the axis 'Antibody [nM]'
[9] = target: T3, Gal9 (Galectin-9) as used in Examples 3 …; test: Tim3 blocking Assay: binding (%) of Gal9 to TIM3 over antibody concentration; R2 printed 0,9956; no unit in the table, nM from the axis 'Antibody [nM]'
[10] = target: T3, Gal9 (Galectin-9) as used in Examples 3 …; test: CD44 blocking Assay: binding (%) of Gal9 to CD44 over antibody concentration; R2 printed 0,9790; no unit in the table, nM from the axis 'Antibody [nM]'
[11] = target: T3, Gal9 (Galectin-9) as used in Examples 3 …; test: Tim3 blocking Assay: binding (%) of Gal9 to TIM3 over antibody concentration; R2 printed 0,9756; no unit in the table, nM from the axis 'Antibody [nM]'
[12] = target: T3, Gal9 (Galectin-9) as used in Examples 3 …; test: Tim3 blocking Assay: binding (%) of Gal9 to TIM3 over antibody concentration; R2 printed 0,9960; no unit in the table, nM from the axis 'Antibody [nM]'
[13] = target: T2, recombinant human Galectin-9; test: BLI (Octet)
Description: (§1) Antibody binding affinity was measured using the commercially available Octet system from ForteBio (Creative Biolabs). According to the Creative Biolabs description, the Octet platform is based on bio-layer interferometry (BLI) technology that utilizes a whole set of system including instruments, biosensors, reagents and assay kits to support the evaluation of biomolecular interactions in 96- or 384-well microplates. Octet system uses Dip-and-Read assay mode to avoid the need of microfluidics, and enables the real-time, label-free analysis of affinity as well as kinetics. There are three biosensor-based assay orientations that can be used to explore antibody interaction: tandem blocking, premix blocking and classical sandwich. Compared to Biacore, Octet's dip-and-read assay allows longer analyte-binding steps and […] the rebinding of analyte to the ligand-coated sensors. Meanwhile, faster association time consumes less sample, which saves your precious proteins.

[14] = target: T1, recombinant mouse Galectin-9; test: BLI (Octet)
Description: as §1

[15] = target: T3, Gal9 (Galectin-9) as used in Examples 3 …; test: CD44 blocking Assay: binding (%) of Gal9 to CD44 over antibody concentration; ambiguous fit marked '~', R2 printed 0,9720; no unit in the table, nM from the axis 'Antibody [nM]'

T1 sequence (O08573 other isoform, or with tags, fused parts or gaps limits assumed): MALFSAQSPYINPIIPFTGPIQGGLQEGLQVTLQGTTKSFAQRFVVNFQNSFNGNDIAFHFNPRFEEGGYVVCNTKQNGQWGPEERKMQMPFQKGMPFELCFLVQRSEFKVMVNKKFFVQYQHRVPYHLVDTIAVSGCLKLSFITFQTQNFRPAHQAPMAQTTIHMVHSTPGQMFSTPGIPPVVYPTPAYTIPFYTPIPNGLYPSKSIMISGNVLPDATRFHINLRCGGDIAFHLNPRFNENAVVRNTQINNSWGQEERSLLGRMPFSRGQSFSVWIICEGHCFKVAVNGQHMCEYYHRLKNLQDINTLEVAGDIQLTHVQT
T2 sequence (O00182 other isoform, or with tags, fused parts or gaps limits assumed): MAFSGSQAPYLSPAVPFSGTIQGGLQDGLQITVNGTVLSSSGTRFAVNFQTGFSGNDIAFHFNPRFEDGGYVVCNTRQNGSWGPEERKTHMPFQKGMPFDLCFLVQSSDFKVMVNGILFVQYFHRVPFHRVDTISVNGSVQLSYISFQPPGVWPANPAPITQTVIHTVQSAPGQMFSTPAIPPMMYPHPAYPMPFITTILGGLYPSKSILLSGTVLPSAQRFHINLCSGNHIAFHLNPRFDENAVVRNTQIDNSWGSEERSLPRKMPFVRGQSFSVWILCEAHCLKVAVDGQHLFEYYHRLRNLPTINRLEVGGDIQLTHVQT
T3 sequence (O00182 other isoform, or with tags, fused parts or gaps limits assumed): as above

B1: HFB9-1hz2-hG1AA (antibody, human IgG1, V domains shown)
VH: QVQLVQSGAEVKKPGSSVKVSCKASGYTFTDYTIHWVRQAPGQGLEWMGWFYPGSHSIKYAQKFQGRVTITADKSTSTAYMELSSLRSEDTAVYFCTRHGGYDGFDYWGQGTLVTVSS
VL: DIVMTQSPDSLAVSLGERATINCKSSQSLFYSTNQKNYLAWYQQKPGQPPKLLIYWASTRESGVPDRFSGSGSGTDFTLTISSLQAEDVAVYYCQQYYYFPYTFGQGTKLEIK
notes: Humanized variant of HFB9-1
EC50 [1]: 0.828 nM
EC50 [2]: 0.15 nM
IC50 [3]: ~59.8 nM
IC50 [4]: ~63.1 nM

B2: HFB9-1hz3-hG1AA (antibody, human IgG1, V domains shown)
VH: QVQLVQSGAEVKKPGSSVKVSCKASGYTFTDYTIHWVRQAPGQGLEWMGWFYPGSHSIKYAQKFQGRVTITADKSTSTAYMELSSLRSEDTAVYYCTRHGGYDGFDYWGQGTLVTVSS
VL: DIVMTQSPDSLAVSLGERATINCKSSQSLFYSTNQKNYLAWYQQKPGQPPKLLIYWASTRESGVPDRFSGSGSGTDFTLTISSLQAEDVAVYYCQQYYYFPYTFGQGTKLEIK
notes: Humanized variant of HFB9-1
IC50 [5]: 0.0616 nM
EC50 [1]: 0.98 nM
EC50 [2]: 0.142 nM
IC50 [6]: ~183 nM

B3: HFB9-1hz1-hG1AA (antibody, human IgG1, V domains shown)
VH: QVQLVQSGAEVKKPGASVKVSCKASGYTFTDYTIHWVRQAPGQGLEWMGWFYPGSHSIKYAQKFQGRVTMTADTSISTAYMELSRLRSDDTAVYFCTRHGGYDGFDYWGQGTLVTVSS
VL: DIVMTQSPDSLAVSLGERATINCKSSQSLFYSTNQKNYLAWYQQKPGQPPKLLIYWASTRESGVPDRFSGSGSGTDFTLTISSLQAEDVAVYYCQQYYYFPYTFGQGTKLEIK
notes: Humanized variant of HFB9-1
IC50 [7]: ~52.1 nM
EC50 [2]: 0.153 nM
IC50 [8]: ~255 nM

B4: HFB9-1hz4-hG1AA (antibody, V domains shown)
VH: QVQLVQSGAEVKKPGSSVKVSCKASGYTFTDYTIHWVRQAPGQGLEWMGWFYPGSHSIKYAQKFQGRVTITADKSTSTAYMELSSLRSEDTAVYYCARHGGYDGFDYWGQGTLVTVSS
VL: DIVMTQSPDSLAVSLGERATINCKSSQSLFYSTNQKNYLAWYQQKPGQPPKLLIYWASTRESGVPDRFSGSGSGTDFTLTISSLQAEDVAVYYCQQYYYFPYTFGQGTKLEIK
notes: humanized variant of HFB9-1
EC50 [2]: 1.84 nM

B5: HFB9-2hz14-hG1AA (antibody, human IgG1, V domains shown)
VH: EVQLVQSGAEVKKPGESLKISCKGSGYTFTEYTIHWVRQMPGKGLEWMGWFYPGSGSTEYSPSFQGQVTISADKSISTAYLQWSSLKASDTAMYYCERHGGYDGFDYWGQGTTVTVSS
VL: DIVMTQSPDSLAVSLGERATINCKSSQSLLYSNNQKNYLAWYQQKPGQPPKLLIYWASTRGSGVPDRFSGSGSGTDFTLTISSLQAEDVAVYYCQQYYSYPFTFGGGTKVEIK
notes: Humanized variant of HFB9-2; also called 2h14
EC50 [2]: 0.144 nM
IC50 [9]: 37.1 nM
IC50 [10]: 48.7 nM

B6: HFB9-2hz13-hG1AA (antibody, human IgG1, V domains shown)
VH: QVQLVQSGAEVKKPGASVKVSCKASGYTFTEYTIHWVRQAPGQGLEWMGWFYPGSGSTEYAQKFQGRVTMTADTSTSTVYMELSSLRSEDTAVYYCERHGGYDGFDYWGQGTTVTVSS
VL: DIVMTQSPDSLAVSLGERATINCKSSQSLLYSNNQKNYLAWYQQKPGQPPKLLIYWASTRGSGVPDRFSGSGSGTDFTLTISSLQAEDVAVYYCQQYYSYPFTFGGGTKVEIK
notes: Humanized variant of HFB9-2
IC50 [11]: 51.4 nM
EC50 [1]: 0.496 nM
EC50 [2]: 0.128 nM

B7: HFB9-2hz11-hG1AA (antibody, IgG1, V domains shown)
VH: QVQLVQSGAEVKKPGASVKVSCKASGYTFTEYTIHWVRQAPGQGLEWMGWFYPGSGSTEYAQKFQGRVTMTADTSISTAYMELSRLRSDDTAVYFCERHGGYDGFDYWGQGTTVTVSS
VL: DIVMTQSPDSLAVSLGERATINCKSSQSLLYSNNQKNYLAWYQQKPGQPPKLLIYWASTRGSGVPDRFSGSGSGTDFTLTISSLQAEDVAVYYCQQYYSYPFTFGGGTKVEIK
notes: Humanized variant of HFB9-2; also called HFB9-2hz11-hG1AA MF20191024
IC50 [12]: 25.3 nM
EC50 [1]: 0.533 nM
EC50 [2]: 0.117 nM
Kd [13]: 4.84 nM and 1.96 nM
koff [13]: 0.000352 s⁻¹ and 0.000179 s⁻¹
kon [13]: 72800 M⁻¹ s⁻¹ and 91400 M⁻¹ s⁻¹
koff [14]: 0.000462 s⁻¹ and 0.000606 s⁻¹
kon [14]: 402000 M⁻¹ s⁻¹ and 166000 M⁻¹ s⁻¹
IC50 [15]: ~39.6 nM

B8: HFB9-2hz12-hG1AA (antibody, V domains shown)
VH: QVQLVQSGAEVKKPGSSVKVSCKASGYTFTEYTIHWVRQAPGQGLEWMGWFYPGSGSAEYAQKFQGRVTITADESTSTAYMELSSLRSEDTAVYYCERHGGYDGFDYWGQGTTVTVSS
VL: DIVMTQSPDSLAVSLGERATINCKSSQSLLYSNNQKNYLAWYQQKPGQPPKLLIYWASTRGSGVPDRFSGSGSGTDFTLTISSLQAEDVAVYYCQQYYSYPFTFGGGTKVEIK
notes: humanized variant of HFB9-2
EC50 [2]: 0.57 nM
